Measured values reported in paper PMC6475481 (Journal of the American Chemical Society, 2019).
Each block holds one binder with its values, some of them ahead of it.

Key:
AqpZ, P60844 = target: T1, AqpZ, P60844; assay: native MS; settings: remark: other sources report otherwise
T1 chain: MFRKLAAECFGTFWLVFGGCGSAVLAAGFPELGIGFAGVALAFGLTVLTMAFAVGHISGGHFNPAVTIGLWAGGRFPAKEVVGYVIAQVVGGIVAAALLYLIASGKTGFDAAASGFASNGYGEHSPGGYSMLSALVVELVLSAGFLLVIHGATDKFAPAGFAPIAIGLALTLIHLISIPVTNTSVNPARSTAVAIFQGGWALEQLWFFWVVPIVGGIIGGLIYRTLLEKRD

native MS = target: the molecule itself; assay: native MS

- stoichiometry N (AqpZ, P60844): 4
B1: AqpZ, P60844 1-231 (natural protein)
chain: T1 chain

B2: AmtB (natural protein)
chain: VADKADNAFMMICTALVLFMTIPGIALFYGGLIRGKNVLSMLTQVTVTFALVCILWVVYGYSLAFGEGNNFFGNINWLMLKNIELTAVMGSIYQYIHVAFQGSFACITVGLIVGALAERIRFSAVLIFVVVWLTLSYIPIAHMVWGGGLLASHGALDFAGGTVVHINAAIAGLVGAYLIGKRVGFGKEAFKPHNLPMVFTGTAILYIGWFGFNAGSAGTANEIAALAFVNTVVATAAAILGWIFGEWALRGKPSLLGACSGAIAGLVGVTPACGYIGVGGALIIGVVAGLAGLWGVTMLKRLLRVDDPCDVFGVHGVCGIVGCIMTGIFAASSLGGVGFAEGVTMGHQLLVQLESIAITIVWSGVVAFIGYKLADLTVGLRVPEEQEREGLDVNSHGENAYNA
- stoichiometry N (native MS): 3
